Target: T1, soluble HGF-R, chimeric fusion protein (HGF-R/IgG) comprising the HGF-binding portion of the extracellular … (UniProt P08581 25-932, limits assumed)
T1 construct: also called c-Met; not shown: a portion of IgG
Experiment: SPR (BIAcore 2000), N immobilized on the sensor chip, soluble HGF-R/IgG injected at three different doses

T1 sequence (P08581 25-932 limits assumed, change not shown): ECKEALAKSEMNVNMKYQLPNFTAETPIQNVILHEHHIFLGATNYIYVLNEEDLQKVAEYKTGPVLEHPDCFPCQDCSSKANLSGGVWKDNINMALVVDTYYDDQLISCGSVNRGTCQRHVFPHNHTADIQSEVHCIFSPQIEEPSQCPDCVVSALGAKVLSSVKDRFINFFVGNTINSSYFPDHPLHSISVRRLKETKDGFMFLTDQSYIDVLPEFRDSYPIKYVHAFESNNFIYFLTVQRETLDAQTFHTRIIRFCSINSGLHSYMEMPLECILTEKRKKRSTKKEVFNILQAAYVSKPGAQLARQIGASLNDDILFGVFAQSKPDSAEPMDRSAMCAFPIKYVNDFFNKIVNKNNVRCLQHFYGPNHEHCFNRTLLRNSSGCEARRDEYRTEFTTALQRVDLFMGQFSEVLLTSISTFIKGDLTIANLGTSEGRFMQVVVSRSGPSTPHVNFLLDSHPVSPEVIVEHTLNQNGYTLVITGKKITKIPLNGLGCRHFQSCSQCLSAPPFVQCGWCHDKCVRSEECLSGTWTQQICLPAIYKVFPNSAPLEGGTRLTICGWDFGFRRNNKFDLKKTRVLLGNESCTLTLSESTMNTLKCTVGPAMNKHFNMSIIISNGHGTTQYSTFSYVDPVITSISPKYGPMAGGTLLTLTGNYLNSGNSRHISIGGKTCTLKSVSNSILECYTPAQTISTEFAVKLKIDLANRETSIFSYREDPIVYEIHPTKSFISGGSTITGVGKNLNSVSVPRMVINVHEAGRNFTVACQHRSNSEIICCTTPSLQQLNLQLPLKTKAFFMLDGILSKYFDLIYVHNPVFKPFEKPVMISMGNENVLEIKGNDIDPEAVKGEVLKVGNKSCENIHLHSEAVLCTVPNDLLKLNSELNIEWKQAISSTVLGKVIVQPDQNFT

binding result: no binding
B1: peptide N derived from the HGF α-chain (hairpin-loop domain of HGF, N-terminal Gln instead of PyrGlu) (peptide)
chain: QRKRRNTIHEFKKSAKTTLIKIDPALKIKTKKVNTADQCANRCTRNKGLPFTCKAFVFDKARKQCLWFPFNSMSSGVKKEFGHEFDLYENKDYIRN
notes: Expressed in E. coli and purified; In Assay 6 it was immobilized on the BIAcore sensor chip; also called Ex 1
